The results in this text go back to patent US20240294644A1 (BLUEFIN BIOMEDICINE, published 2024).

Changes are numbered by the printed parent chain.

To fix the notation:
T1: recombinant human VTCN1-his protein (human, UniProt Q7Z7D3 25-259, limits assumed)
T1 construct: also called human VTCN1 protein; recombinant VTCN1
T1 sequence: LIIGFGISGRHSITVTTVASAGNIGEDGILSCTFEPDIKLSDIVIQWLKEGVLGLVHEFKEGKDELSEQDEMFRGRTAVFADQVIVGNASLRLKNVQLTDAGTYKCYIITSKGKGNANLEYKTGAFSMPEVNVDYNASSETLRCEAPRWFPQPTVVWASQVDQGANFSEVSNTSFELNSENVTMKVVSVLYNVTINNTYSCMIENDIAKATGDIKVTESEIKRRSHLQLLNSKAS

T2: human VTCN1 expressed on cells (293-VTCN1 cells; SKBR3, MX-1 and ZR-75-1 cells that express it naturally) (human, UniProt Q7Z7D3 25-282)
T2 construct: The cDNA was bought from Origene
T2 sequence: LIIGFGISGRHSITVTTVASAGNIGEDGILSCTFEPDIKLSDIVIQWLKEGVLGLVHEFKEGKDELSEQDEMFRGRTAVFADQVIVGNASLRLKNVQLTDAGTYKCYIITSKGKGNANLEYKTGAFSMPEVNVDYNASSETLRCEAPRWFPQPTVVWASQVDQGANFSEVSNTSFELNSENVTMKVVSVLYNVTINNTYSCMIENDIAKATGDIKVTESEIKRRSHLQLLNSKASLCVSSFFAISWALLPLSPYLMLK

T3: mouse VTCN1 expressed on 293 cells (mouse, UniProt Q7TSP5 25-257)
T3 construct: whole, on cells
T3 sequence (looked up): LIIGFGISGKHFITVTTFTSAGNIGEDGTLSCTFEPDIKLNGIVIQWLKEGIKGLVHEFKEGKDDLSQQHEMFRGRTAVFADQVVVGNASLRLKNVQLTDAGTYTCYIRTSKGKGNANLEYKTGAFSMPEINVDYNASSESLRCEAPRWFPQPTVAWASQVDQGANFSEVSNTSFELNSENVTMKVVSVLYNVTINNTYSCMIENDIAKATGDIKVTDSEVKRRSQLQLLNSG

T4: cynomolgus monkey VTCN1 protein (cynomolgus monkey, UniProt A0A2K5U6P5 25-259)
T4 construct: The construct and its tag are not described; also called cyno VTCN1
T4 sequence: T1 sequence with L53I

B1: 7G7_44C6 (antibody, V domains shown)
VH: QVQLQESGPGLVKPSETLSLTCTVSGGSISHYYWSWIRQPPGKGLEWIGYIYYSGPTNYNPSLKSRVTISVDTSKNQFSLKLSSVTAADTAVYYCARTYYYGSGSFPDAFDIWGQGTMVTVSS
VL: KIVLTQSPATLSLSPGERATLSCRASQSVSSYLAWYQQTPGQAPRLLIYDASNRATGIPARFSVSGSGTDFTLTISSLEPEDFAVYYCQQRSSWPLTFGGGTKLEIK
notes: Fully human antibody
B2: 7C9 (antibody, V domains shown)
VH: QIQLQESGPGLVQPSQSLSITCTVSGFSLTSYGVQWVRQSPGKGLEWLGVIWSSGSTDYNAAFISRLSISKDNSKSQVFFKMNSLQADDTAIYYCARDITTIVEGFAYWGQGTLVTVSA
VL: NIVMTQSPKSMSMSVGERVTLRCKASENVNTYVSWYQQKPEQSPKLLIYGASNRYTGVPDRFTGSGSATDFTLTISSVQAEDLADYHCGQSYSYPFTFGSGTKLEIK
notes: Recombinant mouse antibody made in CHO cells
B3: 1F8 (antibody, V domains shown)
VH: B2 VH with I2M, Q5K, S40F, P41S, A87P, I92M
VL: IIVMTQSPKSMSMSVGERVTLSCKASENVGTYVSWYQQKPEQSPKLLIYGASNRYTGVPDRFTGSGSATDFTLTISSVQAEDLADYHCGQSYSYPFTFGSGTKLEIKR
notes: Recombinant mouse antibody made in CHO cells; also called 1F8C6
B4: 4B9 (antibody, V domains shown)
VH: B2 VH with Q1E, I2V, Q35H, M82I, N83H, G110A
VL: B2 VL with R22I, N30G, S91T
notes: as for B2
B5: 1C3 (antibody, V domains shown)
VH: B2 VH with E6Q, S56N, S68T, S70T, V78I
VL: B2 VL with R22S, N30G, S91T
notes: as for B2
B6: 8G3 (antibody, V domains shown)
VH: B2 VH with Q35H, K75R, A87P, G110A
VL: B2 VL with I2V, R22I, N30G, S91T, T97A
notes: as for B2
B7: 7D9 (antibody, V domains shown)
VH: B2 VH with Q5K, S54G, G110A
VL: B2 VL with R22S, N30G, S91T
notes: as for B2
B8: 1A2 (antibody, V domains shown)
VH: B2 VH with I2V, E6Q, Q35H, S54G
VL: B2 VL with R22S, N30G, L83V, A84T, S91T
notes: as for B2
B9: 9H12 (antibody, V domains shown)
VH: B2 VH with S54G, Y108H
VL: B2 VL with R22S, N28K, N30G
notes: as for B2
B10: 7G9 (antibody, V domains shown)
VH: B2 VH with I2V, L4M, E46Q, F63V, N73T, A87P, A119S
VL: B2 VL with N1I, R22S, N30G
notes: as for B2
B11: 9H7 (antibody, V domains shown)
VH: QVQLQESGPELVKPGASVKLSCKASGYSFTDYTMHWVKQSPGQGLEWIGWIYPGSGNTMYNDKFKGEATMTADKSSSTTYMQLSSLTSEDSAVYFCARGGDSIITVFPFTYWGQGTLVTVSA
VL: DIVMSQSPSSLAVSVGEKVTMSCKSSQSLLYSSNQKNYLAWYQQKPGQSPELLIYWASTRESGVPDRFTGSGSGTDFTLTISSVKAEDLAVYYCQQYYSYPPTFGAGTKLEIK
notes: as for B2
B12: 3C6 (antibody, V domains shown)
VH: QIQLQESGPELKKPGETVKISCKASGYTFTTTGMQWVQKMPGKGFKWIGWINTHSGEPKYADDFKGRFAFSLETSASTAHLQISNLKNEDTATYFCARTSYWYLDVWGAGTTVTVSS
VL: DIVMTQSQKFMSTSVGDRVSVTCKASQIVGTNIAWYQQKPGQSPKALIYSASYRNSGVPDRFTGSGSGTDFTLTITNVQSEDLAEYFCQQYNSYPLTFGAGTKLEIK
notes: as for B2
B13: 7E12 (antibody, V domains shown)
VH: B12 VH with I2V, L4M, Q5K
VL: B12 VL
notes: as for B2
B14: 2C2 (antibody, V domains shown)
VH: B12 VH with E6Q, T32A, I48L, H80Y, S84N, F95H, V106I
VL: B12 VL with I28N, I33V, N55C, T76S
notes: as for B2
B15: 7F10 (antibody, V domains shown)
VH: B2 VH with I2V, E6Q, V34I, Q35H, A87S, Y93H, V103A
VL: B2 VL with R22S, N30G
notes: as for B2
B16: 6D9 (antibody, mouse IgG2a, V domains shown)
VH: B2 VH with E6Q, V37I, I64L, I69F, K81Q, T90S, I99V, Y108H
VL: B2 VL with R22S, N28K, N30G, A80V, S91T
notes: also called 6D9-mIgG2a; murine VTCN1 antibody 6D9
B17: 5A12 (antibody, V domains shown)
VH: B2 VH with I2V, E6Q, S70N, A87P
VL: B2 VL with N1I, R22S, N30G
notes: as for B2
B18: 6E2 (antibody, V domains shown)
VH: B2 VH with S54G, T100S, Y108H, A119S
VL: B2 VL with R22S, N28K, N30G, S93R
notes: as for B2
B19: 4C6 (antibody, V domains shown)
VH: B2 VH with I2M, V34I, Q35H, A87S, Y93H, V103A, A119S
VL: B2 VL with R22S, N30G
notes: as for B2
B20: 3G10 (antibody, V domains shown)
VH: B2 VH with Q5K, Q35H, S54G, S56Y, A61S
VL: B2 VL with N1I, V19I, R22N, N30G, R61H, S91T
notes: as for B2
B21: 3D11 (antibody, V domains shown)
VH: QVQLQQPGAELVKPGASVKLSCKASGYSFTSYWMNWVKQRPGRGLEWIGRIHPSDSETHYNQNFKSKATLTVDKSSSTAYIQLNSLTSEDSAVYYCARPYYFYGSSPYAMDYWGQGASVTVSS
VL: DVVMTQTPLSLPVSLGDQASISCRSSQSIVHSNGNTYLEWYLQKPGQSPKLLIYKVSNRFSGVPDRFSGSGSGTDFTFKISRVEAEDLGVYYCFQGSHVPYTFGGGTKLEIK
notes: as for B2
B22: 10D1 (antibody, V domains shown)
VH: QVQLQESGPELVKPGASVKLSCKASGYIFTDYTIHWLKQSPGQGLEWIGWIYPGSGHTHYNDKFKGKATMTADKSSTTAYMQLSSLTSEDSAVFFCARGGESITTVFPLAYWGQGTLVTVSA
VL: DIVMSQSPSSLAVSVGEKVTMSCKSSQSLLYSSDQKNYLAWYQQKPGQSPKLLIYWASTWESGVPDRFIGSGSGTDFTLTVSSVKAEDLAVYYCHQYYSYPPTFGAGTKLEIK
notes: as for B2

In the first assay the target is T1, recombinant human VTCN1-his protein. In words: BLI (OCTET), human VTCN1 protein.
As usually defined, the Kd is the equilibrium constant for the complex coming apart. Turning to B1, the equilibrium dissociation constant (Kd) is 192 nM.

The next assay concerns the target T2, human VTCN1 expressed on cells …. Put plainly: flow cytometry, antibody titration on 293-huVTCN1 cells. Background: Flow cytometry measures light scatter and fluorescence of single cells or particles in a stream.
One may read the EC50 as the concentration at which the effect is half-maximal. On to B1, for which the EC50 is 2.2 nM.

In the next assay the target is T3, mouse VTCN1 expressed on 293 cells. In words: flow cytometry, antibody titration on 293-muVTCN1 cells.
As to B1, the EC50 amounted to 45 nM.

The target of the next assay is T2, human VTCN1 expressed on cells …. In words: flow cytometry on live 293-VTCN1 and MX-1 cells, 0.05-10 ug/ml.
For the molecule B2, the binding result is recorded as “binds”.
In the case of B3, the binding result is reported as “binds”.
Consider B4, for which the binding result was “binds”.
On the same count and under the same terms, in the case of B5 it was “binds”; in that of B6, “binds”; in that of B7, “binds”.
B8: the binding result is recorded as “binds”.
Consider B9, for which the binding result is “binds”.
For B10, the binding result is “binds”.
With B11, the binding result is listed as “binds”.
On to B12, for which the binding result is given as “binds”.
B13: the binding result was “binds”.
Same read-out and setting: in the case of B14 it was “binds”.

The target of a further assay is T4, cynomolgus monkey VTCN1 protein. In words: BLI (OCTET Red), antibody on Protein A biosensor, cyno VTCN1.
Molecule B15 had a dissociation constant Kd of 12 nM.
On to B16, for which the Kd turned out to be 7 nM.
As for B17, the Kd turned out to be 12 nM.
Regarding B18, binding was characterised by a dissociation constant (Kd) of 19 nM.
In the case of B19, binding was put at a Kd of 16 nM.
Take B20: binding was put at a Kd of 14 nM.
As for B21, the Kd came out at 2 nM.
In the case of B22, binding was characterised by a dissociation constant (Kd) of 1 nM.

The target of the next assay is T2, human VTCN1 expressed on cells …. Put plainly: flow cytometry, antibody titration on SKBR3 cells (endogenous VTCN1).
B1 yielded an EC50 of 36.8 nM.

A further assay deals with T1, recombinant human VTCN1-his protein. Put plainly: BLI (OCTET Red), antibody on Protein A biosensor, recombinant VTCN1-his in solution.
Turning to B15, the Kd amounted to 5 nM.
On to B16, for which the Kd was 2 nM.
For B17, the equilibrium dissociation constant (Kd) was determined as 4 nM.
With B18, the Kd came out at 8 nM.
As to B19, the Kd was 14 nM.
In the case of B20, the dissociation constant (Kd) is 12 nM.
Turning to B21, the Kd worked out at 6 nM.
Take B22: the Kd is 4 nM.
